From patent publication US20040157314A1, “Inhibitors of Staphylococcus aureus primary sigma factor and uses thereof” (priority 2003, published 2004)

Key:
[1] = target: T1, reconstituted holoenzyme from HK-STAAU_R12 and S. aureus core enzyme (Staphylococcus aureus, UniProt P0A0J0); assay: In vitro transcription and TCA precipitation assay, 96-well; format: biochemical; settings: 10 μM, FIG. 8
T1 construct: made in house; S. aureus RN4220 transformed with pTMHB rpoA (core enzyme)
Excerpt: In order to convert this gel-based transcription assay to a 96-well high through put format, we used an in vitro transcription assay followed by a TCA precipitation step in order to separate radiolabeled nucleotides incorporated into nucleic acid from unincorporated label. Such format is convenient as it will allow rapid screening with a large collection of compounds. In this TCA precipitation assay, we reconstituted the holoenzyme from STAAU_R12 and S. aureus core enzyme instead of using the E. coli core enzyme with STAAU_R12.
The E. coli core enzyme (Epicentre) was used as a positive control for monitoring transcription efficiency. The set up of high throughput screening assay for STAAU_R12 is illustrated in FIG. 7. […] UTP (3000 Ci/mmole), 1 U of RNasin (Promega) and 40 ng of pTMSM template DNA (a pTM derivative vector). To investigate the in vitroeffectofG1ORF67 on STAAU_R12 mediated transcriptional activation, G1ORF67 and a negative control (10 μM) were added to the mixture and the reaction was incubated for 1 h at 37° C. in a 96-well PCR-plate (BD-Falcon™). […] After filtration, the wells were washed 3 times (225 μl per wash) with 10% TCA, 2 times (225 μl per wash) with 95% ethanol and then 75 μl of liquid scintillation cocktail was added and the plates were counted for 30 s on a Trilux™ Microbeta counter (Perkin Elmer-Packard).

HK-STAAU_R12 [2] = target: T2, HK-STAAU_R12 (Staphylococcus aureus, UniProt P0A0I8 1-368); assay: TR-FRET, 32 nM of both GB-G1ORF67 and HK-STAAU_R12
T2 construct: not shown: N-terminal 6x histidine tag and heart muscle kinase (HMK) phosphorylation site of vector pH6K
T2 sequence (P0A0I8 whole entry): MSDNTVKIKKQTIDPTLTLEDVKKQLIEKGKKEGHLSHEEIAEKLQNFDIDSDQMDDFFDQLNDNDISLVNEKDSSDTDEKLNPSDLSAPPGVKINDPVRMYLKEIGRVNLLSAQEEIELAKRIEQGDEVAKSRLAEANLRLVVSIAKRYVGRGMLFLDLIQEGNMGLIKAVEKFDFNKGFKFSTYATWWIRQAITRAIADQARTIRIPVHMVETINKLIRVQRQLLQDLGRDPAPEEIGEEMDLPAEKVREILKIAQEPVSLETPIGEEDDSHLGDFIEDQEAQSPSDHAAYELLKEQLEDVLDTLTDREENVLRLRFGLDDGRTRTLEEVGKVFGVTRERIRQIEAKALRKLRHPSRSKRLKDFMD

HK-STAAU_R12 [3] = target: T2, HK-STAAU_R12; assay: TR-FRET competition, untagged G1ORF67 against 32 nM GB-G1ORF67 on 32 nM HK-STAAU_R12
STAAU_R12 [4] = target: T3, STAAU_R12 (Staphylococcus aureus, UniProt P0A0J0); assay: Far Western analysis with 32P-labeled HK-STAAU_R12 probe; format: binding; design: made in house; host or cells: E. coli BL21; settings: 100 ng to 2 μg immobilised protein, FIG. 4
T3 sequence (P0A0J0 whole entry): as the sequence (P0A0I8 whole entry) above
Procedure: Radiolabeling of the proteins was done through the heart muscle phosphate acceptor site with the heart muscle kinase enzyme (HMK). The labeled probe was incubated with immobilized target protein, and the interaction was detected by exposure to X-ray film after extensive washes.
For radiolabeling with […], 10-15 μg of STAAU_R12 fused to 6× histidine and the HMK kinase acceptor domain (HK-STAAU_R12) were incubated with 50 units of the catalytic sub-unit of cAMP-dependent protein kinase (Heart Muscle Kinase; Sigma) in a total volume of 100 μl containing 20 mM Tris pH 7.5, 100 mM NaCl, 12 mM MgCl2, 1 mM DTT and 50 μCi of [γ^32P]-ATP (3000 Ci/mmole) (NEN/Mandel) for 30 min at room temperature. To remove free nucleotides, the protein was applied to a Sephadex-G50™ column and eluted with Z-buffer (25 mM Hepes pH 7.7, 12.5 mM MgCl2, 20% glycerol, 100 mM KCl & 1 mM DTT) and the incorporation of γ^32P-ATP was determined by counting in a liquid scintillation counter.
Increasing amounts (from 100 ng to 2 μg) of HB-G1ORF67 and as a negative control, 77ORF104 protein (2 μg) were used for Far-western analysis. Proteins were resolved by 15% SDS-PAGE and transferred onto a nitrocellulose membrane (Millipore). […]

[5] = target: STAAU_R12 with E. coli core and biotinylated λPR oligonucleotide (Staphylococcus aureus, UniProt P0A0J0); format: biochemical; settings: 0 to 4 μM; 32 nM HK-STAAU_R12, 45 nM biotinylated DNA
Sequence of STAAU_R12 with E. coli core and biotinylated λPR oligonucleotide (P0A0J0 whole entry): as the sequence (P0A0I8 whole entry) above
Procedure: We developed a fluorescence-based high throughput assay to monitor the interaction of STAAU_R12 with its cognate DNA. […] Europium cryptate (Eu) labeled anti-Histidine was used as an energy donor and Allophycocyanin (APC) labeled streptavidin was used as an energy acceptor.
The reaction was incubated for 15 min at room temperature and then, 6 μl of a mixture of Eu-conjugated anti-Histidine (CIS International) and APC-conjugated streptavidin (Prozyme) were added to final concentrations of 3 and 15 nM, respectively. Samples were mixed and 25 μl of the mixture was transferred to a 96-well opaque plate (Molecular Devices). After 45 min incubation at room temperature, the emission at 665 nm (APC) and at 612 nm (Eu) arising from excitation as 340 nm was measured using a Tecan Ultra™ plate reader. […] A mutated version of untagged λPR oligonucleotide consisting of a substitution of the −35 region (from TTGACT in the wild type PR oligonucleotide to ACTTTG in the mutated oligonucleotide) was used as a non specific competitor. Competitors were added to the reaction mixture prior to addition of Eu and APC conjugates.

S. aureus RN4220 = assay: Growth kinetics assay (CFU) of S. aureus clones expressing phage ORF under arsenite-inducible promoter; format: cell-based, Staphylococcus aureus
Excerpt: Bacteriophage ORFs encoded in phage G1 genome were identified as follows: beginning at the first nucleotide, the phage G 1 genome sequence is scanned for a start codon. When one is identified, the number of in-frame codons is counted until a termination codon is reached. A minimum threshold of 33 codons defines this bounded sequence as an ORF. This procedure is repeated, starting at the next nucleotide following the last stop codon, until the end of the phage sequence is reached. The scan is performed in an identical manner on all three reading frames of both DNA strands of the phage sequence, in order to identify all the putative ORFs. Putative genes are then identified based on the presence of a Shine-Dalgarno sequence within the 15 nucleotides upstream of the start codon. The E. coli-S. aureus shuttle vector pTOO21 (Tauriainen et al., Appl. Environ. Microbiol. (1997) 63:4456-64), containing the arsenite-inducible ars promoter and the arsR gene, was modified with an optimal Shine-Dalgarno sequence (AGGAGG) followed by a multiple cloning site (MCS). DNA encoding individual phage ORFs was amplified by PCR from phage genomic DNA and cloned into the MCS of the modified vector. […]

[6] = target: E. coli holoenzyme (E. coli sigma factor and E. coli core RNA polymerase) (Escherichia coli, UniProt P00579); settings: pre-incubation with E. coli holoenzyme, FIG. 6C
Procedure: (§1) The E. coli holoenzyme (Epicentre) was used at 10 nM as a positive control for monitoring transcription efficiency. Assays were done with increasing amounts (0 to 500 nM) of STAAU_R12 and 25 nM of E. coli core in a total volume of 25 μl containing 40 mM Tris-acetate pH 7.9, 100 mM NaCl, 5 mM MgCl2, 1 mM DTT, 0.1 mg/ml BSA, 0.5 mM of each ATP, GTP, CTP, 0.25 mM UTP, 5 μCi [^32P] UTP (3000 Ci/mmole), 2 units of RNasin (Promega) and 40 ng of pB6 template DNA (Lutz and Bujard, Nuc. Acid Res. (1997) 6:1203-10) harboring λPL promoter, kanamycin gene and the Col E1 RNA-1. […] Reactions were incubated at 37° C. for 15 min and stopped by addition of 5 μl of loading buffer (95% formamide, 20 mM EDTA and 0.05% of each xylene cyanol and bromophenol blue). Samples were boiled for 5 min and electrophoresed on a 6% polyacrylamide/8 M urea gel.

[7] = target: holoenzyme reconstituted from STAAU_R12 and E. coli core RNA polymerase (Staphylococcus aureus, UniProt P0A0J0); assay: In vitro transcription assay (polyacrylamide/urea gel), reconstituted holoenzyme; format: biochemical; settings: pre-incubation with STAAU_R12, 0 to 2 μM, FIG. 6B
Sequence of holoenzyme reconstituted from STAAU_R12 and E. coli core RNA polymerase (P0A0J0 whole entry): as the sequence (P0A0I8 whole entry) above
Procedure: as §1

[8] = target: SV40 large T antigen (pGADT7-LargeT) (SV40, UniProt P03070 86-708); assay: yeast two-hybrid, AH109
Sequence of SV40 large T antigen (pGADT7-LargeT) (P03070 86-708 limits assumed): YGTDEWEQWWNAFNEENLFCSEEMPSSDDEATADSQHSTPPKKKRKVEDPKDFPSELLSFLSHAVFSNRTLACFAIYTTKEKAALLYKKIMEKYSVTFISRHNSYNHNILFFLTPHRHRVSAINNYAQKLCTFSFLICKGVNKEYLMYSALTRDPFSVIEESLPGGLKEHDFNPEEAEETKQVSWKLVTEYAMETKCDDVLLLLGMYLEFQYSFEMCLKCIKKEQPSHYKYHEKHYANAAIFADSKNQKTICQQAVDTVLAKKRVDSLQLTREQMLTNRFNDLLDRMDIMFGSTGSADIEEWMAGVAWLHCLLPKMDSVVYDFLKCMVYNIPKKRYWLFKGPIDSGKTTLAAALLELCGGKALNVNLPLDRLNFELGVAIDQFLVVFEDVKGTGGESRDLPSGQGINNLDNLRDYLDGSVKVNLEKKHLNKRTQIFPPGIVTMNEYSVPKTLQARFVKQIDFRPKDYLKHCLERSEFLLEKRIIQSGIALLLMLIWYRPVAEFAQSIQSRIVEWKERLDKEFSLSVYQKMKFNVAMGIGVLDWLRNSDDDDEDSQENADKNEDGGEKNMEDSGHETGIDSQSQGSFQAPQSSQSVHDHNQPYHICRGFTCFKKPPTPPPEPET

STAAU_R12 [9] = target: T3, STAAU_R12; assay: Yeast two-hybrid analysis; format: cell-based; design: expressed in transfected cells; host or cells: yeast strain AH109 (Clontech); settings: yeast AH109
Excerpt: To validate the interaction between G1ORF67 and STAAU_R12, we first performed yeast two-hybrid analyses with full length and deletions within both STAAU_R12 and G1ORF67. The inserts were cloned into pGADT7™ and pGBK™, the yeast vectors for two hybrid system studies (Clontech Laboratories) as fusions with the Gal4 activation domain (for pGADT7™) as well as with the Gal4 DNA-binding domain (for pGBK™). pGADT7 and pGBK recombinant plasmids bearing different combinations of constructs were introduced into a yeast strain (AH109, Clontech Laboratories), previously engineered to contain chromosomally-integrated copies of E. coli lacZand the selectable HIS3 and ADE2 genes. […]
To define the minimal region of STAAU_R12 conferring an interaction with G1ORF67, six deletions of STAAU_R12 were cloned into pGADT7 and introduced into AH109 yeast cells with the pGBK vector containing the full length sequence of G1ORF67. The resulting co-transformants were analyzed for their ability to induce expression of reporter genes.
To define the minimal region of G1ORF67 conferring an interaction with STAAU_R12, six deletions of G1ORF67 were cloned into pGADT7 and introduced into AH109 yeast cells with the pGBK vector containing the full length sequence of STAAU_R12. The resulting co-transformants were analyzed for their ability to induce expression of reporter genes required for viability on selective medium.

[10] = target: STAAU_R12 full length fused to the Gal4 activation domain (p[…]_R12) (Staphylococcus aureus, UniProt P0A0I8 1-368); assay: yeast two-hybrid, AH109
Sequence of STAAU_R12 full length fused to the Gal4 activation domain (p[…]_R12) (P0A0I8 whole entry, the tested form may be a part): as the sequence (P0A0I8 whole entry) above

T1 sequence (P0A0J0 whole entry): as the sequence (P0A0I8 whole entry) above

With “GST: glutathione-S-transferase protein used as a negative control [reference compound]” as the molecule, how does the “inhibition of STAAU_R12 mediated transcriptional activation (TCA precipitation)” value [1] read?
Its value is “did not show any inhibition”.

B1: GB-G1ORF67 (other)
chain: MKLKILDKDNATLNVFHRNKEHKTIDNVPTANLVDWYPLSNAYEYKLSRNGEYLELKRLRSTLPSSYGLDDNNQDIIRDNNHRCKIGYWYNPAVRKDNLKIIEKAKQYGLPIITEEYDANTVEQGFRDIGVIFQSLKTIVVTRYLEGKTEEELRIFNMKSEESQLNEALKESDFSVDLTYSDLGQIYNMLLLMKKISK
notes: also called GST-Bio fusion of G1ORF67; GST-tagged G1ORF67
Which TR-FRET signal-to-background (HK-STAAU_R12 [2]) does the source give for B1 here?
Its TR-FRET signal-to-background is 30 ratio (to 1).

B2: untagged G1ORF67 (other)
chain: B1 chain
notes: also called G1ORF67 with GST portion removed by PreScission protease; not shown: the bioti
With B2 as the molecule, how does the IC50 (HK-STAAU_R12 [3]) read?
The IC50 was roughly 30 nM.

B3: HB-G1ORF67: G1ORF67 fused N-terminally to 6× Histidine residues and a biotin acceptor domain, purified from E. coli (protein)
chain: B1 chain
modifications: left off: small tags and cut ends
notes: G1ORF67 fused N-terminally to 6× Histidine residues and a biotin acceptor domain, purified from E. coli
With B3 as the molecule, how does the “interaction with labeled STAAU_R12 probe” value (STAAU_R12 [4]) read?
Its value is “directly interacts with STAAU_R12 in a dose-dependent manner”.

B4: G1ORF67: 198 amino acids protein from S. aureus bacteriophage G1 (SEQ ID NO: 7), anti-primary sigma factor (protein)
chain: B1 chain
modifications: Bacteriophage G1
Which “reduction of the TR-FRET signal (core-dependent DNA binding of STAAU_R12)” value [5] does the source give for B4 here?
The value was 7 fold.

And the “inhibition of STAAU_R12 mediated transcriptional activation (TCA precipitation)” value [1]?
The value was “dramatic inhibition”.

And the “number of CFU in cells expressing the ORF” value (S. aureus RN4220; S. aureus RN4220, induced with 5 μM NaAsO2, FIG. 1)?
Its value is “significantly reduced”.

And the “type of growth inhibitory effect on S. aureus” value (S. aureus RN4220; expression of the ORF in S. aureus)?
The value was “bacteriostatic”.

And the “effect on transcription by E. coli holoenzyme” value [6]?
The value was “did not affect transcription”.

And the “inhibition of STAAU_R12-mediated transcriptional activation” value [7]?
The value was “dramatic inhibition”.

B5: G1ORF67 full length fused to the Gal4 DNA-binding domain (G1pGBKORF67) (other)
chain: MKLLSSIEQACDICRLKKLKCSKEKPKCAKCLKNNWECRYSPKTKRSPLTRAHLTEVESRLERLEQLFLLIFPREDLDMILKMDSLQDIKALLTGLFVQDNVNKDAVTDRLASVETDMPLTLRQHRISATSSSEESSNKGQRQLTVSMKLKILDKDNATLNVFHRNKEHKTIDNVPTANLVDWYPLSNAYEYKLSRNGEYLELKRLRSTLPSSYGLDDNNQDIIRDNNHRCKIGYWYNPAVRKDNLKIIEKAKQYGLPIITEEYDANTVEQGFRDIGVIFQSLKTIVVTRYLEGKTEEELRIFNMKSEESQLNEALKESDFSVDLTYSDLGQIYNMLLLMKKISK
Does B5 bind [8]?
Result: no binding

B6: G1ORF67—50—198: 149 amino acid fragment of G1ORF67, amino acids residues 50 to 198 (SEQ ID NO: 8) (protein)
chain: NGEYLELKRLRSTLPSSYGLDDNNQDIIRDNNHRCKIGYWYNPAVRKDNLKIIEKAKQYGLPIITEEYDANTVEQGFRDIGVIFQSLKTIVVTRYLEGKTEEELRIFNMKSEESQLNEALKESDFSVDLTYSDLGQIYNMLLLMKKISK
modifications: Bacteriophage G1
B6 was tested. Which “interaction with full length STAAU_R12 (growth on SD THAL minus medium)” value (STAAU_R12 [9]) did it give?
The value was “found to interact”.

B7: LaminC (pGBKT7LaminC) (other)
chain: MKLLSSIEQACDICRLKKLKCSKEKPKCAKCLKNNWECRYSPKTKRSPLTRAHLTEVESRLERLEQLFLLIFPREDLDMILKMDSLQDIKALLTGLFVQDNVNKDAVTDRLASVETDMPLTLRQHRISATSSSEESSNKGQRQLTVSSEEVVSREVSGIKAAYEAELGDARKTLDSVAKERARLQLELSKVREEFKELKARNTKKEGDLIAAQARLKDLEALLNSKEAALSTALSEKRTLEGELHDLRGQVAKLEAALGEAKKQLQDEMLRRVDAENRLQTMKEELDFQKNIYSEELRETKRRHETRLVEID
Does B7 bind [10]?
Result: no binding
